Target: T1, SBP-tagged full-length human Lnp (human, UniProt Q9C0E8 1-428)
T1 construct: lunapark (Lnp), human, full length; a tobacco etch virus protease cut site stands between Lnp and the SBP tag; Membrane protein with two TM segments, kept in 0.05% Triton X-100 in the pull-down; also called lunapark; SBP-tagged human Lnp; source: S. cerevisiae (pRS425, GAL1 promoter), purified in Triton X-100 (streptavidin resin, biotin elution, SEC on Superose 6); not shown: SBP, C-terminal, kept
T1 sequence (looked up): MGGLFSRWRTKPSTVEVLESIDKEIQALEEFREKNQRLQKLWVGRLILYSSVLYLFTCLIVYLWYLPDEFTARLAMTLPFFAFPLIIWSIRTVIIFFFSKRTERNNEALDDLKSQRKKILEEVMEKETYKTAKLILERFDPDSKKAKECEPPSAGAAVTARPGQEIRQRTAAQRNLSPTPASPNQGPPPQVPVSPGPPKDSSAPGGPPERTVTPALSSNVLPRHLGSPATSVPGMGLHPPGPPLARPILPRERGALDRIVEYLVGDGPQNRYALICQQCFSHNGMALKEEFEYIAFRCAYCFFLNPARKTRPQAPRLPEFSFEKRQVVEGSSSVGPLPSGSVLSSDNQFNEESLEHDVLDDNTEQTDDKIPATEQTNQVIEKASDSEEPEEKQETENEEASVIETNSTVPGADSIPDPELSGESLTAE
Experiment: pull-down; SBP-tagged human Lnp mixed with His10-tagged Lnp (molar ratio 1:3 or 1:5), 1 h at 4°C in 20 mM Hepes pH 7.5, 100 mM KCl, 1 mM dithiothreitol, 0.05% Triton X-100; held on streptavidin resin, washed, eluted with 2 mM biotin; SDS-PAGE and Coomassie blue staining
Conditions: both partners purified

B1: His10-tagged full-length human Lnp (natural protein, UniProt Q9C0E8 1-428, looked up)
chain: MGGLFSRWRTKPSTVEVLESIDKEIQALEEFREKNQRLQKLWVGRLILYSSVLYLFTCLIVYLWYLPDEFTARLAMTLPFFAFPLIIWSIRTVIIFFFSKRTERNNEALDDLKSQRKKILEEVMEKETYKTAKLILERFDPDSKKAKECEPPSAGAAVTARPGQEIRQRTAAQRNLSPTPASPNQGPPPQVPVSPGPPKDSSAPGGPPERTVTPALSSNVLPRHLGSPATSVPGMGLHPPGPPLARPILPRERGALDRIVEYLVGDGPQNRYALICQQCFSHNGMALKEEFEYIAFRCAYCFFLNPARKTRPQAPRLPEFSFEKRQVVEGSSSVGPLPSGSVLSSDNQFNEESLEHDVLDDNTEQTDDKIPATEQTNQVIEKASDSEEPEEKQETENEEASVIETNSTVPGADSIPDPELSGESLTAE
notes: lunapark (Lnp), human, full length, cloned into pET21b; also called lunapark; source: E. coli BL21-CodonPlus (DE3)-RIPL, purified in Triton X-100 (Ni-NTA, SEC on Superose 6); not shown: His10, C-terminal, kept
binding result: binds
